The assay can be described thus: OTA detoxification activity assay (specific activity, fluorescence reduction ex/em 390/450 nm). The format is biochemical. The settings on record: SEQ ID NO: 1 = 100%. A digest of the protocol: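 Recombinant enzyme preparation with 200 ng/mL OTA in 100 mM sodium phosphate, at pH 6.0 and pH 7.5, 37° C. Degradation followed as the fall in fluorescence at ex/em 390/450 nm. Specific activity taken from the initial linear slope; one unit degrades 1 μmol OTA per min at a starting OTA of […].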

B1: 279 (protein)
chain: MTTRTRILTAFLSLLAANACAADAAPAAPHTVVLRAARMFDGASGKLVDHPQLTIVGNKIVRIAQGDKAEVPAGAEVVDLGDATLLPGFIDAHVHLSGQSSDNWYGDFFDNMMRFPAEQALYGAYYARITLEAGFTSVRDVGSTDWVALGLRNAIDAGKVPGPRMLVSNYAVGSTGGHADQDPIPPHKLPLVGPLQGVCNGPEECRAAVRYQIKYGANVIKFMPSGGVLSLSDPVDAPELSQDEMNAVIGESHAWGRKVAAHAHGDKAAKMAVAAGVDSIEHGSFIEDDTLRAMKAKNVYLVPTISAIAHVEEKIGTFPPVIAEKGRAAAAHLRQTFRHAVQIGVPIALGTDAGVGAHGSNAREFRYMVENGLTPAQALLAGTANAARLLGTFDRVGTLEAGKLADVVAVPGNPIADITVTERPLFVMKDGVVVRRDAVR
modifications: exemplary polypeptide
On to B1, for which the “Specific OTA detoxification activities in % compared to the enzyme of SEQ ID NO: 1, pH 6.0” value was determined as 23% and the “Specific OTA detoxification activities in % compared to the enzyme of SEQ ID NO: 1, pH 7.5” value came out at 36%.

B2: 302 (protein)
chain: MTTRTRILTAFLSLLAANACAADAAPAAPHTVVLRAARMFDGASGKLVDHPQLTIVGNKIVRIAQGDKAEVPAGAEVVDLGDATLLPGFIDAHVHLSGQSSDNWYGDFFDNMMRFPAEQALYGAYYARITLEAGFTSVRDVGSTDWVALGLRNAIDAGKVPGPRMLVSNYAVGSTGGHADQDPIPPHKLPLAGPLQGVCNGPEECRAAVRYQIKYGANVIKFMPSGGVLSLSDPVDAPELSQDEMNAVIGESHAWGRKVAAHAHGDKAAKMAVAAGVDSIEHGSFIEDDTLRAMKAKNVYLVPTISAIAHVEEKIGTFPPVIAEKGRAAAAHLRQTFRHAVQIGVPIALGTDAPLGAHGSNAREFRYMVENGLTPAQALLAGTANAARLLGTFDRVGTLEAGKLADVVAVPGNPIADITVTERPLFVMKDGVVVRRDAVR
modifications: exemplary polypeptide
Take B2: the “Specific OTA detoxification activities in % compared to the enzyme of SEQ ID NO: 1, pH 6.0” value turned out to be 26% and the “Specific OTA detoxification activities in % compared to the enzyme of SEQ ID NO: 1, pH 7.5” value was 23%.

B3: 90 (protein)
chain: MTTRTRILTAFLSLLAANACAADAAPAAPHTVVLRAARMFDGASGKLVDHPQLTIVGNKIVRIAQGDKAEVPAGAEVVDLGDATLLPGFIDAHVHLSGQSSDNWYGDFFDNMMRFPAEQALYGAYYARITLEAGFTSVRDVGSTDWVALGLRNAIDAGKVPGPRMLVSNYAVGSTGGHADQDPIPPHKLPLAGPLQGVCNGPEECRAAVRYQIKYGANVIKFMPSGGVLSLSDPVDAPELSQDEMNAVIGESHAWGRKVAAHAHGDKAAKMAVAAGVDSIEHGSFIEDDTLRAMKAKNVYLVPTISAIAHVEEKIGTFPPVIAEKGRAAAAHLRQTFRHAVQIGVPIALGTDAAVGAHGSNAREFRYMVENGLTPAQALLAGTANAARLLGTFDRVGTLEAGKLADVVAVPGNPIADITVTERPLFVMKDGVVVRRDAVR
modifications: exemplary polypeptide
With B3, the “Specific OTA detoxification activities in % compared to the enzyme of SEQ ID NO: 1, pH 6.0” value is listed as 99% and the “Specific OTA detoxification activities in % compared to the enzyme of SEQ ID NO: 1, pH 7.5” value is on record as 162%.

B4: 293 (protein)
chain: MTTRTRILTAFLSLLAANACAADAAPAAPHTVVLRAARMFDGASGKLVDHPQLTIVGNKIVRIAQGDKAEVPAGAEVVDLGDATLLPGFIDAHVHLSGQSSDNWYGDFFDNMMRFPAEQALYGAYYARITLEAGFTSVRDVGSTDWVALGLRNAIDAGKVPGPRMLVSNYAVGSTGGHADQDPIPPHKLPLAGPLQGVCNGPEECRAAVRYQIKYGANVIKFMPSGGVLSLSDPVDAPELSQDEMNAVIGESHAWGRKVAAHAHGDKAAKMAVAAGVDSIEHGSFIEDDTLRAMKAKNVYLVPTISAVAHVEEKIGTFPPVIAEKGRAVAAHLRQTFRHAVQIGVPIALGTDAGVGAHGSNAREFRYMVENGLTPAQALLAGTANAARLLGTFDRVGTLEAGKLADVVAVPGNPIADITVTERPLFVMKDGVVVRRDAVR
modifications: exemplary polypeptide
Consider B4, for which the “Specific OTA detoxification activities in % compared to the enzyme of SEQ ID NO: 1, pH 6.0” value turned out to be 16% and the “Specific OTA detoxification activities in % compared to the enzyme of SEQ ID NO: 1, pH 7.5” value stood at 18%.

B5: 283 (protein)
chain: MTTRTRILTAFLSLLAANACAADAAPAAPHTVVLRAARMFDGASGKLVDHPQLTIVGNKIVRIAQGDKAEVPAGAEVVDLGDATLLPGFIDAHVHLSGQSSDNWYGDFFDNMMRFPAEQALYGAYYARITLEAGFTSVRDVGSTDWVALGLRNAIDAGKVPGPRMLVSNYAVGSTGGHADQDPIPPHKLPLAGPLQGVCNGPEECRAAVRYQIKYGANVIKFMPSGGVLSLSDPDDAPELSQDEMNAVIGESHAWGRKVAAHAHGDKAAKMAVAAGVDSIEHGSFIEDDTLRAMKAKNVYLVPTISAIAHVEEKIGTFPPVIAEKGRAAAAHLRQTFRHAVQIGVPIALGTDAGVGAHGSNAREFRYMVENGLTPAQALLAGTANAARLLGTFDRVGTLEAGKLADVVAVPGNPIADITVTERPLFVMKDGVVVRRDAVR
modifications: exemplary polypeptide
For B5, the “Specific OTA detoxification activities in % compared to the enzyme of SEQ ID NO: 1, pH 6.0” value is 29% and the “Specific OTA detoxification activities in % compared to the enzyme of SEQ ID NO: 1, pH 7.5” value is 23%.

B6: 314 (protein)
chain: MTTRTRILTAFLSLLAANACAADAAPAAPHTVVLRAARMFDGASGKLVDHPQLTIVGNKIVRIAQGDKAEVPAGAEVVDLGDATLLPGFIDAHVHLSGQSSDNWYGDFFDNMMRFPAEQALYGAYYARITLEAGFTSVRDVGSTDWVALGLRNAIDAGKVPGPRMLVSNYAVGSTGGHADQDPIPPHKLPLAGPLQGVCNGPEECRAAVRYQIKYGANVIKFMPSGGVLSLSDPVDAPELSQDEMNAVIGESHAWGRKVAAHAHGDKAAKMAVAAGVDSIEHGSFIEDDTLRAMKAKNVYLVPTISAVAHVEEKIGTFPPVIAEKGRAAAAHIRQTFRHAVQIGVPIALGTDAGVGAHGSNAREFRYMVENGLTPAQALLAGTANAARLLGTFDRVGTLEAGKLADVVAVPGNPIADITVTERPLFVMKDGVVVRRDAVR
modifications: exemplary polypeptide
Regarding B6, the “Specific OTA detoxification activities in % compared to the enzyme of SEQ ID NO: 1, pH 6.0” value was found to be 71% and the “Specific OTA detoxification activities in % compared to the enzyme of SEQ ID NO: 1, pH 7.5” value is recorded as 33%.

B7: 65 (protein)
chain: MTTRTRILTAFLSLLAANACAADAAPAAPHTVVLRAARMFDGASGKLVDHPQLTIVGNKIVRIAQGDKAEVPAGAEVVDLGDATLLPGFIDAHVHLSGQSSDNWYGDFFDNMMRFPAEQALYGAYYARITLEAGFTSVRDVGSTDWVALGLRNAIDAGKVPGPRMLVSNYAVGSTGGHADQDPIPPHKLPLAGPLQGVCNGPEECRAAVRYQIKYGANVIKFMPSGGVLSLSDPVDAPELSQDEMNAVIGESHAWGRKVAAHAHGDKAAKMAVAAGVDSIEHGSFIEDDTLRAMKAKNVYLVPTISAIAHVEEKIGTFPPVIAEKGRAAAAHLRQTFRHAVQIGVPIALGTDAGVGAHGSWAREFRYMVENGLTPAQALLAGTANAARLLGTFDRVGTLEAGKLADVVAVPGNPIADITVTERPLFVMKDGVVVRRDAVR
modifications: exemplary polypeptide
Take B7: the “Specific OTA detoxification activities in % compared to the enzyme of SEQ ID NO: 1, pH 6.0” value was 4% and the “Specific OTA detoxification activities in % compared to the enzyme of SEQ ID NO: 1, pH 7.5” value is on record as 10%.

B8: 298 (protein)
chain: MTTRTRILTAFLSLLAANACAADAAPAAPHTVVLRAARMFDGASGKLVDHPQLTIVGNKIVRIAQGDKAEVPAGAEVVDLGDATLLPGFIDAHVHLSGQSSDNWYGDFFDNMMRFPAEQALYGAYYARITLEAGFTSVRDVGSTDWVALGLRNAIDAGKVPGPRMLVSNYAVGSTGGHADQDPIPPHKLPLAGPLQGVCNGPEECRAAVRYQIKYGANVIKFMPSGGVLSLSDPVDAPELSQDEMNAVIGESHAWGRKVAAHAHGDKAAKMAVAAGVDSIEHGSFIEDDTLRAMKAKNVYLVPTISAIAHVEEKIGTFPPVIAEKGRAAAAHLRQTFRHAVQIGVPIALGTDAAVYAHGSNAREFRYMVENGLTPAQALLAGTANAARLLGTFDRVGTLEAGKLADVVAVPGNPIADITVTERPLFVMKDGVVVRRDAVR
modifications: exemplary polypeptide
In the case of B8, the “Specific OTA detoxification activities in % compared to the enzyme of SEQ ID NO: 1, pH 6.0” value amounted to 15% and the “Specific OTA detoxification activities in % compared to the enzyme of SEQ ID NO: 1, pH 7.5” value turned out to be 17%.

B9: 86 (protein)
chain: MTTRTRILTAFLSLLAANACAADAAPAAPHTVVLRAARMFDGASGKLVDHPQLTIVGNKIVRIAQGDKAEVPAGAEVVDLGDATLLPGFIDAHVHLSGQSSDNWYGDFFDNMMRFPAEQALYGAYYARITLEAGFTSVRDVGSTDWVALGLRNAIDAGKVPGPRMLVSNYAVGSTGGHADQDPIPPHKLPLAGPLQGVCNGPEECRAAVRYQIKYGANVIKFMPSGGVLSLSDPVDAPELSQDEMNAVIGESHAWGRKVAAHAHGDKAAKMAVAAGVDSIEHGSFIEDDTLRAMKAKNVYLVPTISTIAHVEEKIGTFPPVIAEKGRAAAAHLRQTFRHAVQIGVPIALGTDAGVGAHGSNAREFRYMVENGLTPAQALLAGTANAARLLGTFDRVGTLEAGKLADVVAVPGNPIADITVTERPLFVMKDGVVVRRDAVR
modifications: exemplary polypeptide
Regarding B9, the “Specific OTA detoxification activities in % compared to the enzyme of SEQ ID NO: 1, pH 6.0” value is given as 4% and the “Specific OTA detoxification activities in % compared to the enzyme of SEQ ID NO: 1, pH 7.5” value is listed as 9%.

B10: 92 (protein)
chain: MTTRTRILTAFLSLLAANACAADAAPAAPHTVVLRAARMFDGASGKLVDHPQLTIVGNKIVRIAQGDKAEVPAGAEVVDLGDATLLPGFIDAHVHLSGQSSDNWYGDFFDNMMRFPAEQALYGAYYARITLEAGFTSVRDVGSTDWVALGLRNAIDAGKVPGPRMLVSNYAVGSTGGHADQDPIPPHKLPLAGPLQGVCNGPEECRAAVRYQIKYGANVIKFMPSGGVLSLSDPVDAPELSQDEMNAVIGESHAWGRKVAAHAHGDKAAKMAVAAGVDSIEHGSFIEDDTLRAMKAKNVYLVPTISAIAHVEEKIGTMPPVIAEKGRAAAAHLRQTFRHAVQIGVPIALGTDAGVGAHGSNAREFRYMVENGLTPAQALLAGTANAARLLGTFDRVGTLEAGKLADVVAVPGNPIADITVTERPLFVMKDGVVVRRDAVR
modifications: exemplary polypeptide
As to B10, the “Specific OTA detoxification activities in % compared to the enzyme of SEQ ID NO: 1, pH 6.0” value was 37% and the “Specific OTA detoxification activities in % compared to the enzyme of SEQ ID NO: 1, pH 7.5” value was 52%.

The values are drawn from patent US20240352438A1, “MEANS AND METHODS FOR DETOXIFYING OCHRATOXIN A” (DSM Austria GmbH, priority 2021, published 2024).
